The results in this text go back to US20080138847A1, “Bcl-2 family member and BH-3 only proteins for use in development of peptidomimetics” (priority 2004, published 2008).

The target of one experiment is T1, CED-4 (Caenorhabditis elegans, UniProt P30429).
T1 sequence (P30429 1-549): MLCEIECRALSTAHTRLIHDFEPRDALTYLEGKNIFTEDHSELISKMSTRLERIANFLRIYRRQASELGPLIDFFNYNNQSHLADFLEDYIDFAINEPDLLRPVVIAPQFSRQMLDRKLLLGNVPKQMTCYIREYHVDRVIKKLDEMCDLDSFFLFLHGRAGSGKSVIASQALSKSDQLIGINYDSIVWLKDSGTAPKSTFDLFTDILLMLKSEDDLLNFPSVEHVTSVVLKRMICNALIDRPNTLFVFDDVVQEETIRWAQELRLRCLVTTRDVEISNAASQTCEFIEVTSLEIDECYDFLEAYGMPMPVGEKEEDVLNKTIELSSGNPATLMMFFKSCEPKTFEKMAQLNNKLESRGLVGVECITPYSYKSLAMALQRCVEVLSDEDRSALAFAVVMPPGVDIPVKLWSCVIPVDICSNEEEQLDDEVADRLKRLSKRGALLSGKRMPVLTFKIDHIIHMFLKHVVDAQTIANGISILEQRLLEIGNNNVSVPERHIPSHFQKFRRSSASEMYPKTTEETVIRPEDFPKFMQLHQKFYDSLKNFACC
Nature of the experiment: interaction of CED-9 surface mutants with CED-4. The format is binding, C. elegans. The note with it: purified CED-9 mutant proteins. As for the experimental part: This example describes the biochemical analysis of CED-4/CED-9 interactions. To further define the molecular mechanisms by which EGL-1 induces the release of CED-4 from CED-9-mediated sequestration, the identify of surface residues in CED-9 that are important for binding to CED-4 was analyzed. It was hypothesized that for molecular recognition to occur, at least some of the CED-9 residues that are important for binding to CED-4 must be solvent-exposed prior to binding. Therefore, the structure of CED-9 in isolation was examined and a total of 44 amino acids were identified, each with at least 30% of its surface area exposed to solvent. These 44 amino acids were grouped based on primary sequences and 20 CED-9 mutant clones were generated, each containing 1-5 missense mutations that together covering all 44 solvent-exposed residues. All 20 CED-9 proteins were cloned into an expression vector and over-expressed in E. coli and purified to homogeneity.
Next, the abilities of these CED-9 mutants to interact with CED-4 was examined. […] This surface patch may constitute the primary CED-4-binding motif. None of the other 16 mutations, which cover the entirety of the CED-9 surface, affected the CED-4/CED-9.

For experiment [1], the system named is ced-1 (e1735); egl-1 (n1084 n3082) animals. Nature of the experiment: in vivo cell killing: cell corpses in four-fold transgenic embryos after heat-shock expression of EGL-1 fragments. Further details: species or system C. elegans. Conditions: anterior head region of four-fold transgenic embryos; heat-shock promoter expression. As to the method:
In this example, the ability of EGL-1 mutants to disrupt the CED-4/CED-9 complex was tested. […] To examine this scenario, constructs were injected into ced-1 (e1735); egl-1 (n1084 n3082) animals that direct expression of various EGL-1 fragments under the control of the C. elegans heat-shock promoters. Cell corpses were scored in the anterior head region of four-fold transgenic embryos after the heat-shock treatment.

In a further experiment the target is T2, CED-9 (residues 68-251) (Caenorhabditis elegans, UniProt P41958).
T2 construct: made in house
T2 sequence (P41958 68-251): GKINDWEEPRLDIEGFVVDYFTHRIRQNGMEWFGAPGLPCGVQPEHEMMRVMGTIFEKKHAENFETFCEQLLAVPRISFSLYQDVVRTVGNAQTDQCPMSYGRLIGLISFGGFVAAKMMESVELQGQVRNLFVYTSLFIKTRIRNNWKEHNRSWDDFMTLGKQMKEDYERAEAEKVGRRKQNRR
Nature of the experiment: isothermal titration calorimetry (ITC) of EGL-1 fragments binding to CED-9. Further details: species or system C. elegans. The note with it: binding to CED-9 (residues 68-251), read-out: dissociation constant. The text has this:
The EGL-1/CED-9 complex adopts a compact, globular fold, resembling a single folding unit. CED-9 comprises 7 α helices, with the central hydrophobic helix α5 surrounded by 6 helices and several surface loops. A 27-amino acid fragment of the EGL-1 protein (residues 47-73) forms a single amphipathic α helix, packing against CED-9 helices α2, α3, α4, α5, and α7 over an extended hydrophobic surface cleft. Residues N- or C-terminal to the EGL-1 helix were disordered in the crystals and thus are not involved in binding to CED-9.

In experiment [2] the target is T3, CED-9 protein (residues 1-251) (Caenorhabditis elegans, UniProt P41958).
T3 construct: made in house
T3 sequence (P41958 1-251): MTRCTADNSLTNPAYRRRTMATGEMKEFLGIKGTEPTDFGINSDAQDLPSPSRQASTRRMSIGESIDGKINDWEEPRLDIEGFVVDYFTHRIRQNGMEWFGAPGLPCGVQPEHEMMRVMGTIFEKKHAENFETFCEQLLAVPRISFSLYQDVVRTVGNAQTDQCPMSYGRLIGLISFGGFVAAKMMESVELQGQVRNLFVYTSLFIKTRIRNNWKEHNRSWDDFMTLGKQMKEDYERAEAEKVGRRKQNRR
Nature of the experiment: GST-EGL-1 fragment/mutant interaction with CED-9 (GST-mediated pull-down assay). The format is binding, C. elegans. The note with it: GST-EGL-1 fragments or mutants, in vitro. As to the method:
This example describes the characterization of EGL-1/CED-9 interactions. To determine the mechanism of CED-9 recognition by EGL-1, the EGL-1/CED-9 interaction was characterized. Various fragments of the GST-EGL-1 protein were evaluated for their abilities to interact with the CED-9 protein (residues 1-251).
To further characterize EGL-1/CED-9 interactions, a number of missense mutations were introduced into EGL-1 and the ability of the resulting EGL-1 mutants to interact with CED-9 was determined.
This example describes the biochemical and functional analysis of EGL-1/CED-9 interactions. To corroborate the structural analysis, mutations on the interface residues of EGL-1 were examined for their potential to weaken or disrupt its binding to CED-9. Various mutant EGL-1 fragments were purified as fusion proteins with glutathione S-transferase (GST) and their interactions with CED-9 were investigated using a GST-mediated pull-down assay.

A further experiment deals with T4, CED-4/CED-9 complex (Caenorhabditis elegans, UniProt P41958).
T4 sequence (P41958 1-251 limits assumed): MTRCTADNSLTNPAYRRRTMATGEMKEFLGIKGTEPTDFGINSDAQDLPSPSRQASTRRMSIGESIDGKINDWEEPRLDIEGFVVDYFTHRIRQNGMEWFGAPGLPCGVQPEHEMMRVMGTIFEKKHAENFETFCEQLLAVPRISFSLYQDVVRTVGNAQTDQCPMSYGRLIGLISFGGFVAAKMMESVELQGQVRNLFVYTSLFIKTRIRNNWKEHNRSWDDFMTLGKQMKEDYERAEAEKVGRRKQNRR
The experiment in a line: CED-4 displacement assay (pre-assembled CED-4/CED-9 complex on glutathione resin challenged with EGL-1 fragments). The class given is biochemical, C. elegans. Conditions: in vitro, remaining complex visualized on SDS polyacrylamide gel. The text has this:
EGL-1 induces apoptosis by displacing CED-4 from the CED-4/CED-9 complex. To recapitulate this finding in vitro, a CED-4 displacement assay was designed in which pre-assembled CED-4/CED-9 complex was immobilized on glutathione resin and was then challenged with various EGL-1 fragments. After extensive washing, the remaining CED-4/CED-9 complex was eluted from the resin and visualized on SDS polyacrylamide gel. […] In contrast, most missense mutations at the EGL-1/CED-9 interface weakened the ability of EGL-1 to displace CED-4 from the CED-4/CED-9 complex. […] The in vitro studies are in complete agreement with the structural observation.

Entries after “also recorded” stand apart in the source; their conditions may differ.

B1: F146N: CED-9 mutant F146N (protein)
chain: MTRCTADNSLTNPAYRRRTMATGEMKEFLGIKGTEPTDFGINSDAQDLPSPSRQASTRRMSIGESIDGKINDWEEPRLDIEGFVVDYFTHRIRQNGMEWFGAPGLPCGVQPEHEMMRVMGTIFEKKHAENFETFCEQLLAVPRISNSLYQDVVRTVGNAQTDQCPMSYGRLIGLISFGGFVAAKMMESVELQGQVRNLFVYTSLFIKTRIRNNWKEHNRSWDDFMTLGKQMKEDYERAEAEKVGRRKQNRR
With B1, in the experiment with CED-4, the “interaction with CED-4” value is recorded as “significantly weakened interactions with CED-4”.

B2: R211E/N212G: CED-9 mutant R211E/N212G (protein)
chain: MTRCTADNSLTNPAYRRRTMATGEMKEFLGIKGTEPTDFGINSDAQDLPSPSRQASTRRMSIGESIDGKINDWEEPRLDIEGFVVDYFTHRIRQNGMEWFGAPGLPCGVQPEHEMMRVMGTIFEKKHAENFETFCEQLLAVPRISFSLYQDVVRTVGNAQTDQCPMSYGRLIGLISFGGFVAAKMMESVELQGQVRNLFVYTSLFIKTRIEGNWKEHNRSWDDFMTLGKQMKEDYERAEAEKVGRRKQNRR
For B2, the “interaction with CED-4” value with CED-4 is given as “significantly weakened interactions with CED-4”.

B3: N158A/A159G/Q160A: CED-9 mutant N158A/A159G/Q160A (protein)
chain: MTRCTADNSLTNPAYRRRTMATGEMKEFLGIKGTEPTDFGINSDAQDLPSPSRQASTRRMSIGESIDGKINDWEEPRLDIEGFVVDYFTHRIRQNGMEWFGAPGLPCGVQPEHEMMRVMGTIFEKKHAENFETFCEQLLAVPRISFSLYQDVVRTVGAGATDQCPMSYGRLIGLISFGGFVAAKMMESVELQGQVRNLFVYTSLFIKTRIRNNWKEHNRSWDDFMTLGKQMKEDYERAEAEKVGRRKQNRR
For B3, in the experiment with CED-4, the “interaction with CED-4” value is “significantly weakened interactions with CED-4”.

B4: full-length EGL-1 protein: full-length pro-apoptotic BH-3 Only protein EGL-1 of C. elegans (protein, UniProt O61667 1-106, looked up)
chain: MLMLTFASTSSDLLPMSNVFDVQSSVFYNEKNMFYSSSQDFSSCEDSSQFADDSGFFDDSEISSIGYEIGSKLAAMCDDFDAQMMSYSAHASDRSLFHRLLDFFAF
modifications: full-length
notes: full-length pro-apoptotic BH-3 Only protein EGL-1 of C. elegans
Turning to B4, the “cell killing (cell corpses induced)” value in experiment [1] is “induced robust cell killing”. Further, the Kd with CED-9 (residues 68-251) was determined as 6.7 nM.

B5: G55E: EGL-1 mutant, Gly55 substituted by glutamate (protein, UniProt O61667 1-106, looked up, variant G55E)
Programmed cell death …: MLMLTFASTSSDLLPMSNVFDVQSSVFYNEKNMFYSSSQDFSSCEDSSQFADDSEFFDDSEISSIGYEIGSKLAAMCDDFDAQMMSYSAHASDRSLFHRLLDFFAF
With B5, the “cell killing (cell corpses induced)” value in experiment [1] is reported as “significantly lower level than that of the wild-type EGL-1 protein”. Besides, the “interaction with (binding to) CED-9” value in experiment [2] is listed as “not sufficient to abolish interaction with CED-9; also recorded: retaining their ability to bind to CED-9”; in experiment [2] (listed as EGL-1 (G55E)) it was “retained its ability to interact with CED-9”. Further, the results for the “ability to displace CED-4 from the CED-4/CED-9 complex” value in the experiment with CED-4/CED-9 complex and with CED-4/CED-9 complex (listed as EGL-1 (G55E)) were “significantly reduced ability” and “decreased ability to disrupt the CED-4/CED-9 complex”, respectively.
